Reference: publication PMC8887127

T1: BEND3-BD4 (crystal construct) (Homo sapiens, UniProt Q5T5X7 715-828)
T1 sequence: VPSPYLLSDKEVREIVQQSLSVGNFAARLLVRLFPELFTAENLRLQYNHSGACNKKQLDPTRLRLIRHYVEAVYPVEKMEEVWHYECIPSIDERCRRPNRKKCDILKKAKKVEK

T2: GST-BEND3-BD4 (gel shift construct) (Homo sapiens, UniProt Q5T5X7 546-828)
T2 sequence: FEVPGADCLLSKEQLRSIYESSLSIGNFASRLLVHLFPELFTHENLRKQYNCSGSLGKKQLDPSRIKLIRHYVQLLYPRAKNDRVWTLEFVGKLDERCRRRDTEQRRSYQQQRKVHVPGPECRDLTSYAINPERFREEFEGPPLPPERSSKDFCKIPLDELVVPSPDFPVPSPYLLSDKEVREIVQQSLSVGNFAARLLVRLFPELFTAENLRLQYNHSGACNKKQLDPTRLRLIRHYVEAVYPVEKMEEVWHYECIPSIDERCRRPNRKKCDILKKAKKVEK

B1: 13-mer BD4 target duplex (dsDNA)
DNA 1: GGACCCACGCAGC
DNA 2: GGCTGCGTGGGTC
B2: wild-type BD4 probe (dsDNA)
DNA 1: CTAAACACCCACGCGCCGTGGGTTGTCTT
DNA 2: AAGACAACCCACGGCGCGTGGGTGTTTAG
B3: mutant BD4 probe (dsDNA)
DNA 1: CTAAACCTTTCTACGCTAAAACCTGTCTT
DNA 2: AAGACAGGTTTTAGCGTAGAAAGGTTTAG

How the values were obtained:
[1] = biological target: T1, BEND3-BD4 (crystal construct); assay: X-ray crystallography
[2] = biological target: T2, GST-BEND3-BD4 (gel shift construct); assay: EMSA

Row | Binder | binding result [1] | binding result [2]
1 | B1 | binds | –
2 | B2 | – | binds
3 | B3 | – | no binding
